Experiments:
[1] = molecular target: LHCP (light-harvesting chlorophyll a/b binding protein), fluorescein-labeled (UniProt P07371); experiment: fluorescence polarisation
cpSRP43 (mature) = cpSRP43 (mature) (UniProt O22265); experiment: fluorescence polarisation

Row | Kd [1] | Ki (cpSRP43 (mature)) | Substance
1 | 886 nM |  | cpSRP43 ΔCD3 (domain or fragment)
2 |  | 2200 nM | L18 peptide
3 | 530 nM |  | cpSRP43 ΔCD2 (domain or fragment)
